# In patent US8653023:
# Molecular target: protein phosphatase 2A (PP2A), endogenous, in N27 cell lysate
protein,measurement,value
"protein kinase C delta (PKCδ), endogenous, in N27 cell lysate (immortalized rat fetal mesencephalic dopaminergic neuronal cells) (protein) MAPFLRISFNSYELGSLQAEDDASQPFCAVKMKEALTTDRGKTLVQKKPTMYPEWKSTFDAHIYEGRVIQIVLMRAAEDPMSEVTVGVSVLAERCKKNNGKAEFWLDLQPQAKVLMCVQYFLEDGDCKQSMRSEEEAMFPTMNRRGAIKQAKIHYIKNHEFIATFFGQPTFCSVCKEFVWGLNKQGYKCRQCNAAIHKKCIDKIIGRCTGTATNSRDTIFQKERFNIDMPHRFKVYNYMSPTFCDHCGTLLWGLVKQGLKCEDCGMNVHHKCREKVANLCGINQKLLAEALNQVTQKASRKPETPETVGIYQGFEKKTAVSGNDIPDNNGTYGKIWEGSNRCRLENFTFQKVLGKGSFGKVLLAELKGKERYFAIKYLKKDVVLIDDDVECTMVEKRVLALAWENPFLTHLICTFQTKDHLFFVMEFLNGGDLMFHIQDKGRFELYRATFYAAEIICGLQFLHGKGIIYRDLKLDNVMLDKDGHIKIADFGMCKENIFGENRASTFCGTPDYIAPEILQGLKYSFSVDWWSFGVLLYEMLIGQSPFHGDDEDELFESIRVDTPHYPRWITKESKDIMEKLFERDPAKRLGVTGNIRLHPFFKTINWNLLEKRKVEPPFKPKVKSPSDYSNFDPEFLNEKPQLSFSDKNLIDSMDQTAFKGFSFVNPKYEQFLE",32P-kinase assay: phosphorylation of immunoprecipitated PP2A,PP2A immunoprecipitated from N27 cells was effectively phosphorylated by PKCδ immunoprecipitates
